Data published in patent publication US20260092084A1, “PEPTIDE AND ASSEMBLY OR COMPOSITION CONTAINING SAID PEPTIDE” (priority 2022, published 2026).
Square brackets hold non-standard residues; d marks the D form. Ends that are not written are not given here. * marks the point of attachment. 5(6)‑FAM = 5(6)-carboxyfluorescein; pS = N[C@@H](COP(=O)(O)O)C(=O)O; Tfa = O=C(C(F)(F)F)*

Experiments:
[1] = Binding affinity to first target (HA): adsorption isotherm on hydroxyapatite beads; details: hydroxyapatite magnetic beads; 10 mM HEPES (pH 7.4)/1% DMSO; 4° C., 4 hours; tryptophan fluorescence; read-out: Dissociation constant (KD)
Protocol: The peptides of Examples 1-2 and 1-5 and a HA-binding peptide A (DSpSEEKW: SEQ ID NO: 17) forming the HA binding site of each of the peptides were each evaluated for peptide binding affinity to hydroxyapatite beads (1 μm BcMag™ Hydroxyapatite Magnetic Particles (Bioclone Inc., catalog No. FO-101)). Specifically, the beads were weighed and suspended in a 100 mM sodium phosphate buffer (pH 7.4)/20% ethanol so as to have 30 mg/mL. 267 μL of the suspension of the beads ultrasonicated to be dispersed homogenously was dispensed in a 1.5 mL tube. The beads were fixed with a magnetic stand (Takara Bio Inc., Magnetic Stand (6 tubes), product code: 5328), followed by removal of a supernatant, and then 100 μL of a peptide solution was added. The peptide solution was prepared by diluting the 100 mM stock solution (in DMSO) to 40 μM with 10 mM HEPES (pH 7.4)/1% DMSO and further serially diluting the solution from 4-fold to 5-fold. After stirring at 4° C. for 4 hours, the tube was stood in the magnetic stand for fixing the beads, and a supernatant was recovered. A peptide concentration in the supernatant was measured with a plate reader (VARIO-SCAN, Thermo Fischer Scientific Inc.) based on a fluorescence intensity derived from tryptophan in a sequence (excitation wavelength: 280 nm; emission wavelength: 355 nm) through use of 50 μL of the supernatant. The amount of the peptide bound to the beads was determined by subtracting the peptide concentration in the supernatant from a total peptide concentration, and the adsorption isotherm thus obtained was subjected to curve fitting to a theoretical formula (Microsoft Excel, Microsoft Corporation), thereby determining a dissociation constant KD of the peptide to the hydroxyapatite beads.

[2] = Average particle diameter of peptide assembly by dynamic light scattering; format: physicochemical; details: 10 mM HEPES, 150 mM NaCl buffer (pH 7); 40 mM DMSO stock diluted 100-fold; stood overnight; 25° C.; main peak of scattering intensity
Protocol: 5 mg of each of the peptides of Examples 1-1 to 1-5 and Reference Examples 1-1 to 1-8 was dissolved in dimethyl sulfoxide (DMSO) to provide a stock solution (40 mM). To a 10 mM HEPES and 150 mM NaCl buffer (pH 7) under stirring with a micromixer (E-36, Taitec Corporation), 4 μL of the stock solution was dropped to be diluted 100-fold. The dilution was vortexed and then left to stand still at room temperature overnight. Then, 200 μL of the dilution was used as a measurement sample and measurement of particle diameter distribution was performed at 25° C. by dynamic light scattering with Litesizer 500 (Anton Paar GmBH). The results determined by defining the main peak of a scattering intensity as the average particle diameter of an assembly are shown in Table 3. Provided that, when a polydispersity index was more than 20%, the main peak was determined with further reference to a volume-based particle diameter distribution.

[3] = mouse, in vivo
Protocol: Three kinds of fluorescein (FAM)-labeled peptides shown in Table 7 were purchased from Eurofins Genomics K.K. 1 mg of each of the peptides was separately dissolved in 4 mL of PBS to prepare an administration solution (0.25 mg/mL).
Eighteen Crl:CD1 (ICR) mice (male) (Jackson Laboratory Japan, Inc.) were subjected to 7 or more days of adaptation after their arrival and receipt, then divided by three per group into the six groups as in Table 8, and used in the following experiments. The administration solution (1 mg/4 mL/kg) was administered to the tail vein of a non-fasting mouse through use of a syringe equipped with an injection needle. A dose for each individual was calculated from a body weight measured on the day of the administration.
After the completion of the administration, about 0.1 mL of blood was collected from a jugular vein without anesthesia at the predetermined time points of collection shown in Table 8 through use of a heparin-treated syringe equipped with an injection needle. At the final time point of collection, whole blood was collected from a posterior aorta under isoflurane anesthesia. The collected blood was promptly transferred to a polypropylene tube and cooled on ice. The collected whole blood was centrifuged (about 10,000×g, 3 minutes, 4° C.), and the plasma sample was promptly dispensed and light-shielded in a sample storage container. The plasma samples were cryopreserved until measurement (control temperature: about −80° C.).
A freeze-thawed plasma sample (10 μL) was diluted 10-fold with PBS (90 μL), and measured for its fluorescence intensity with a plate reader (SPARK™ multi-detection mode microplate reader, Tecan Group Ltd.) (excitation wavelength: 495 nm; emission wavelength: 520 nm). […] The peptide concentrations in plasma thus obtained were logarithmically plotted against post-administration time, four time points including the final blood collection point were exponentially approximated (Microsoft Excel, Microsoft Corporation), and an elimination half-life was calculated from a slope of the straight line. […]

[4] = molecular target: Arg-gingipain (Rgp); test: Binding affinity to second target (Rgp) by SPR (Biacore-T100); details: immobilized Rgp, 10 mM HEPES (pH 7.4), 150 mM NaCl, 0.05% Tween, 0.2% DMSO, peptide 25-1,600 nM, read-out: Dissociation constant (KD)
Protocol: The peptide of Example 1-2 and an Rgp-binding peptide A (RRKRR: SEQ ID NO: 16) forming the Rgp binding site of the peptide were each measured for its binding affinity to Rgp by SPR using “Biacore-T100” (GE Healthcare). The measurement was performed according to a common method. Specifically, the measurement of the peptide of Example 1-2 was performed through bonding streptavidin (Extravidin SIGMA E2511) to a chip (CM5 sensor chip) by amine coupling, and then immobilizing Rgp biotinylated with a 20-fold molar ratio of an NHS-biotinylation reagent (EZ-Link™ Sulfo-NHS-SS-Biotin, Thermo Fischer Scientific Inc.). Meanwhile, the measurement of the Rgp-binding peptide A was performed through directly immobilizing Rgp on a CM5 sensor chip by amine coupling from the viewpoint of measurement sensitivity.
Next, the peptide stock solution (in DMSO) was diluted with a running buffer (10 mM HEPES (pH 7.4), 150 mM NaCl, 0.05% Tween, 0.2% DMSO) to prepare peptide solutions having final peptide concentrations of 25 nM, 100 nM, 400 nM, and 1,600 nM. Those peptide solutions having the four concentrations were used to provide sensorgrams indicating weight changes caused by binding between Rgp immobilized on the chip and the peptide. […]

[5] = pH dependency of particle diameter of peptide assembly (dynamic light scattering); format: physicochemical; details: 25° C.; for Average particle diameter, pH 6: 10 mM MES, 150 mM NaCl buffer (pH 6.0); for Average particle diameter, pH 7: dilution A (pH 6.0) diluted with 10 mM HEPES, 150 mM NaCl buffer (pH 7.4)
Protocol: 5 mg of each of the peptides of Examples 2-1 and 2-2 was dissolved in DMSO to provide a stock solution (50 mg/mL). To a 10 mM MES and 150 mM NaCl buffer (pH 6.0) under stirring with a micromixer (E-36, Taitec Corporation), 4 μL of the stock solution was dropped to be diluted 100-fold. Thus, a dilution A was obtained. The dilution A was vortexed and then left to stand still at room temperature overnight. 100 μL of the dilution A was used and diluted with 300 μL of the same MES buffer or a 10 mM HEPES and 150 mM NaCl buffer (pH 7.4), and stirred for 1 hour. Thus, a dilution B was obtained. 200 μL of each of the dilution A and the dilution B after having been left to stand still overnight was used as a measurement sample and measurement of particle diameter distribution was performed at 25° C. with Litesizer 500 (Anton Paar GmBH).

[6] = molecular target: Arg-gingipain (Rgp); test: SPR (Biacore T100); Rgp amine-coupled directly to CM5 chip; peptide as analyte at 25-1,600 nM
[7] = molecular target: Arg-gingipain (Rgp); test: SPR (Biacore T100); biotinylated Rgp captured on streptavidin-coupled CM5 chip; peptide as analyte at 25-1,600 nM; KD per peptide

DSpSEEKW-LLELLELL-KGKILRPR (DS[pS]EEKWLLELLELLKGKILRPR-NH2; N-terminus assumed; SMILES CC[C@H](C)[C@H](NC(=O)[C@H](CCCCN)NC(=O)CNC(=O)[C@H](CCCCN)NC(=O)[C@H](CC(C)C)NC(=O)[C@H](CC(C)C)NC(=O)[C@H](CCC(=O)O)NC(=O)[C@H](CC(C)C)NC(=O)[C@H](CC(C)C)NC(=O)[C@H](CCC(=O)O)NC(=O)[C@H](CC(C)C)NC(=O)[C@H](CC(C)C)NC(=O)[C@H](Cc1c[nH]c2ccccc12)NC(=O)[C@H](CCCCN)NC(=O)[C@H](CCC(=O)O)NC(=O)[C@H](CCC(=O)O)NC(=O)[C@H](COP(=O)(O)O)NC(=O)[C@H](CO)NC(=O)[C@@H](N)CC(=O)O)C(=O)N[C@@H](CC(C)C)C(=O)N[C@@H](CCCNC(=N)N)C(=O)N1CCC[C@H]1C(=O)N[C@@H](CCCNC(=N)N)C(N)=O) [Example 1-5]
Kd [1]: < 40 nM | Average particle diameter [2]: 5 nm

5(6)-FAM-GYSEWRKWEL-LLLLLLGG-HWRGWV ({5(6)‑FAM}-GYSEWRKWELLLLLLLGGHWRGWV-NH2) [Example 3-1]
Elimination half-life [3]: 133 h

KGKILRPR-YYYYYYYY (KGKILRPRYYYYYYYY-NH2) [1-2]
Average particle diameter [2]: 210 nm

DSpSEEKW (DS[pS]EEKW) [HA-binding peptide A, reference compound]
Kd [1]: 710 nM

KGKILRPR-AAAAAAAA (KGKILRPRAAAAAAAA-NH2) [1-8]
Average particle diameter [2]: >1,000 nm

KGKILRPR-WWWWWWWW (KGKILRPRWWWWWWWW-NH2) [1-3]
Average particle diameter [2]: 920 nm

KGKILRPR-LLELLELL (KGKILRPRLLELLELL-NH2) [Reference Example 1-5]
Average particle diameter [2]: 5 nm

DSpSEEKW-LLELLELL-RRKRR (DS[pS]EEKWLLELLELLRRKRR-NH2; N-terminus assumed; SMILES CC(C)C[C@H](NC(=O)[C@H](CC(C)C)NC(=O)[C@H](CCC(=O)O)NC(=O)[C@H](CC(C)C)NC(=O)[C@H](CC(C)C)NC(=O)[C@H](CCC(=O)O)NC(=O)[C@H](CC(C)C)NC(=O)[C@H](CC(C)C)NC(=O)[C@H](Cc1c[nH]c2ccccc12)NC(=O)[C@H](CCCCN)NC(=O)[C@H](CCC(=O)O)NC(=O)[C@H](CCC(=O)O)NC(=O)[C@H](COP(=O)(O)O)NC(=O)[C@H](CO)NC(=O)[C@@H](N)CC(=O)O)C(=O)N[C@@H](CCCNC(=N)N)C(=O)N[C@@H](CCCNC(=N)N)C(=O)N[C@@H](CCCCN)C(=O)N[C@@H](CCCNC(=N)N)C(=O)N[C@@H](CCCNC(=N)N)C(N)=O) [Example 1-2]
Kd [4]: 1.3 nM | Kd [1]: 1400 nM | Average particle diameter [2]: 250 nm

KGKILRPR-FFFFFFFF (KGKILRPRFFFFFFFF-NH2) [1-4]
Average particle diameter [2]: 50 nm

KGKILRPR-AAEAAEAA (KGKILRPRAAEAAEAA-NH2) [1-7]
Average particle diameter [2]: 520 nm

5(6)-FAM-GYSEWRKWEL ({5(6)‑FAM}-GYSEWRKWEL-NH2) [Comparative Example 1]
Elimination half-life [3]: 1.3 h

GRSHHKRK-LLELLELL-HRHHVQER (GRSHHKRKLLELLELLHRHHVQER; a peptide designed to have two hydrophilic regions and a hydrophobic region located therebetween) [Example 2-1]
Average particle diameter, pH 6 [5]: 440 nm | Average particle diameter, pH 7 [5]: 4 nm

DSpSEEK-AAEAAEAA-RRK(Tfa)RR (DS[pS]EEKAAEAAEAARRK(Tfa)RR-NH2; N-terminus assumed; SMILES C[C@H](NC(=O)[C@H](C)NC(=O)[C@H](CCC(=O)O)NC(=O)[C@H](C)NC(=O)[C@H](C)NC(=O)[C@H](CCCCN)NC(=O)[C@H](CCC(=O)O)NC(=O)[C@H](CCC(=O)O)NC(=O)[C@H](COP(=O)(O)O)NC(=O)[C@H](CO)NC(=O)[C@@H](N)CC(=O)O)C(=O)N[C@@H](CCC(=O)O)C(=O)N[C@@H](C)C(=O)N[C@@H](C)C(=O)N[C@@H](CCCNC(=N)N)C(=O)N[C@@H](CCCNC(=N)N)C(=O)N[C@@H](CCCCNC(=O)C(F)(F)F)C(=O)N[C@@H](CCCNC(=N)N)C(=O)N[C@@H](CCCNC(=N)N)C(N)=O) [Example 1-4]
Average particle diameter [2]: 450 nm

HHIRRKRQ-WWEWWEWW-HGDHHKSN (HHIRRKRQWWEWWEWWHGDHHKSN; a peptide designed to have two hydrophilic regions and a hydrophobic region located therebetween) [Example 2-2]
Average particle diameter, pH 6 [5]: 4,400 nm | Average particle diameter, pH 7 [5]: 210 nm

KGKILRPR-WWEWWEWW (KGKILRPRWWEWWEWW-NH2) [1-6]
Average particle diameter [2]: 10 nm

RRKRR [Rgp-binding peptide A, reference compound]
Kd [4]: 400 nM

KGKILRPR-LLLLLLLL (KGKILRPRLLLLLLLL-NH2) [1-1]
Average particle diameter [2]: 36 nm

5(6)-FAM-GYSEWRKWEL-LLLLLL ({5(6)‑FAM}-GYSEWRKWELLLLLLL-NH2) [Comparative Example 2]
Elimination half-life [3]: 16.7 h

DSpSEEKW-WEWWEWW-RRK(Tfa)RR (DS[pS]EEKWWEWWEWWRRK(Tfa)RR-NH2; N-terminus assumed; SMILES N=C(N)NCCC[C@H](NC(=O)[C@H](CCCNC(=N)N)NC(=O)[C@H](CCCCNC(=O)C(F)(F)F)NC(=O)[C@H](CCCNC(=N)N)NC(=O)[C@H](CCCNC(=N)N)NC(=O)[C@H](Cc1c[nH]c2ccccc12)NC(=O)[C@H](Cc1c[nH]c2ccccc12)NC(=O)[C@H](CCC(=O)O)NC(=O)[C@H](Cc1c[nH]c2ccccc12)NC(=O)[C@H](Cc1c[nH]c2ccccc12)NC(=O)[C@H](CCC(=O)O)NC(=O)[C@H](Cc1c[nH]c2ccccc12)NC(=O)[C@H](Cc1c[nH]c2ccccc12)NC(=O)[C@H](CCCCN)NC(=O)[C@H](CCC(=O)O)NC(=O)[C@H](CCC(=O)O)NC(=O)[C@H](COP(=O)(O)O)NC(=O)[C@H](CO)NC(=O)[C@@H](N)CC(=O)O)C(N)=O) [Example 1-3]
Average particle diameter [2]: 350 nm

RRKRR [Rgp-binding peptide A (RRKRR)]
Kd [6]: 400 nM

B1: peptide of Example 1-2 (DSpSEEKW-LLELLELL-RRKRR) (peptide)
peptide: DSSEEKWLLELLELLRRKRR
modifications: pS = phosphorylated serine (third residue of DSpSEEKW); C-terminal carboxyl group amidated
Kd [7]: 1.3 nM
